Data from patent US20080138847A1, “Bcl-2 family member and BH-3 only proteins for use in development of peptidomimetics” (priority 2004, published 2008).
Where a chain is given by its changes, count along the chain named. In names and notes the source's numbering stands. Where no end group is shown, it is not given here.

Legend:
CED-9 (residues 68-251) [1] = biological target: T1, CED-9 (residues 68-251) (Caenorhabditis elegans, UniProt P41958 68-251); experiment: isothermal titration calorimetry (ITC)
T1 construct: range 68-251; Form used in isothermal titration calorimetry
T1 sequence (looked up): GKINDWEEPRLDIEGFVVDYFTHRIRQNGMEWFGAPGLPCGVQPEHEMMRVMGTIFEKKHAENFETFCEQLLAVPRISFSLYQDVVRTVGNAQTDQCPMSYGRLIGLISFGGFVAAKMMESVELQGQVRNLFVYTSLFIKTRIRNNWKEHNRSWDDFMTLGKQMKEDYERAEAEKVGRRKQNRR
From the text: (§1) The EGL-1/CED-9 complex adopts a compact, globular fold, resembling a single folding unit. CED-9 comprises 7 α helices, with the central hydrophobic helix α5 surrounded by 6 helices and several surface loops. A 27-amino acid fragment of the EGL-1 protein (residues 47-73) forms a single amphipathic α helix, packing against CED-9 helices α2, α3, α4, α5, and α7 over an extended hydrophobic surface cleft. Residues N- or C-terminal to the EGL-1 helix were disordered in the crystals and thus are not involved in binding to CED-9.

[2] = biological target: T2, CED-9 protein (residues 1-251) (Caenorhabditis elegans, UniProt P41958 1-251); experiment: binding test of GST-EGL-1 fragments with CED-9 (1-251)
T2 construct: range 1-251
T2 sequence (looked up): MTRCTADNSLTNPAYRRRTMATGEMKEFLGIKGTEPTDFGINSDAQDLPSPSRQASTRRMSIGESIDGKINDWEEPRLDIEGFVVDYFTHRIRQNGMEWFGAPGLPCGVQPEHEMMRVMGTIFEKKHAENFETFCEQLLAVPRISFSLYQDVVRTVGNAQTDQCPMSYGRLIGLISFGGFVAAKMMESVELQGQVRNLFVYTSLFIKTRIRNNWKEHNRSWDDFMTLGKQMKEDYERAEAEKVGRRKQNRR
Procedure: This example describes the characterization of EGL-1/CED-9 interactions. To determine the mechanism of CED-9 recognition by EGL-1, the EGL-1/CED-9 interaction was characterized. Various fragments of the GST-EGL-1 protein were evaluated for their abilities to interact with the CED-9 protein (residues 1-251). […] In contrast, the C-terminal half (residues 45-87 or 45-91) formed a stable complex with CED-9.

CED-4 = biological target: T3, CED-4 (Caenorhabditis elegans, UniProt P30429); experiment: interaction of CED-9 surface mutants with CED-4; assay type: binding, C. elegans; settings: purified CED-9 mutant proteins
T3 sequence (P30429 1-549): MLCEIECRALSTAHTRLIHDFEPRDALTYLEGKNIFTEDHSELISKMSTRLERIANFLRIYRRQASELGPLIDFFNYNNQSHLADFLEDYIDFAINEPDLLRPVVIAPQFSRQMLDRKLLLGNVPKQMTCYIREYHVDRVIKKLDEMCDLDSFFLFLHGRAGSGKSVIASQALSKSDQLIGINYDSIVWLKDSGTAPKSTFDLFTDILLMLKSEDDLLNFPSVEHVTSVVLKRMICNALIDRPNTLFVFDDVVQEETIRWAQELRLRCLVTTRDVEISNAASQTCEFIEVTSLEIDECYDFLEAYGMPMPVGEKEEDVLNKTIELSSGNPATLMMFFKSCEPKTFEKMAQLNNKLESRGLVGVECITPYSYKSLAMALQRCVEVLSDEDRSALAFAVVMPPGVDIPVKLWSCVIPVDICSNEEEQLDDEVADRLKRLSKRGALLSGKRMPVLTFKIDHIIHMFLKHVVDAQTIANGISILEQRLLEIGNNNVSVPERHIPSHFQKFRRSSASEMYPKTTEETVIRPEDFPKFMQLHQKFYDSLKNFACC
Procedure: This example describes the biochemical analysis of CED-4/CED-9 interactions. To further define the molecular mechanisms by which EGL-1 induces the release of CED-4 from CED-9-mediated sequestration, the identify of surface residues in CED-9 that are important for binding to CED-4 was analyzed. It was hypothesized that for molecular recognition to occur, at least some of the CED-9 residues that are important for binding to CED-4 must be solvent-exposed prior to binding. Therefore, the structure of CED-9 in isolation was examined and a total of 44 amino acids were identified, each with at least 30% of its surface area exposed to solvent. These 44 amino acids were grouped based on primary sequences and 20 CED-9 mutant clones were generated, each containing 1-5 missense mutations that together covering all 44 solvent-exposed residues. All 20 CED-9 proteins were cloned into an expression vector and over-expressed in E. coli and purified to homogeneity.
Next, the abilities of these CED-9 mutants to interact with CED-4 was examined. […] This surface patch may constitute the primary CED-4-binding motif. None of the other 16 mutations, which cover the entirety of the CED-9 surface, affected the CED-4/CED-9.

[3] = biological target: T4, CED-9 (construct not stated) (Caenorhabditis elegans, UniProt P41958 1-251, limits assumed); experiment: GST-mediated pull-down
T4 construct: Also stands for the worm's own CED-9 in the in vivo rows
T4 sequence (looked up): T2 sequence (looked up)
From the text: This example describes the biochemical and functional analysis of EGL-1/CED-9 interactions. To corroborate the structural analysis, mutations on the interface residues of EGL-1 were examined for their potential to weaken or disrupt its binding to CED-9. Various mutant EGL-1 fragments were purified as fusion proteins with glutathione S-transferase (GST) and their interactions with CED-9 were investigated using a GST-mediated pull-down assay. […] Strikingly, substitution of Gly55 by a negatively charged glutamate residue was not sufficient to abolish interaction with CED-9.

[4] = biological target: T2, CED-9 protein (residues 1-251); experiment: EGL-1 missense mutants tested for interaction with CED-9 (Example 1)
CED-9 (residues 68-251) [5] = biological target: T5, CED-9 (residues 68-251) (Caenorhabditis elegans, UniProt P41958); experiment: isothermal titration calorimetry (ITC) of EGL-1 fragments binding to CED-9; set-up: species or system C. elegans; settings: binding to CED-9 (residues 68-251), read-out: dissociation constant
T5 construct: made in house
T5 sequence (P41958 68-251): T1 sequence (looked up)
From the text: as §1

[6] = tested on: ced-1 (e1735); egl-1 (n1084 n3082) animals; experiment: in vivo cell killing: cell corpses in four-fold transgenic embryos after heat-shock expression of EGL-1 fragments; set-up: species or system C. elegans; settings: anterior head region of four-fold transgenic embryos; heat-shock promoter expression
Procedure: In this example, the ability of EGL-1 mutants to disrupt the CED-4/CED-9 complex was tested. […] To examine this scenario, constructs were injected into ced-1 (e1735); egl-1 (n1084 n3082) animals that direct expression of various EGL-1 fragments under the control of the C. elegans heat-shock promoters. Cell corpses were scored in the anterior head region of four-fold transgenic embryos after the heat-shock treatment.

Q: “full-length EGL-1 protein (from UniProt O61667 16-106)” was tested. Which Kd (CED-9 (residues 68-251) [1]) did it give?
A: 6.7 nM

B1: GST-EGL-1 N-terminal half (residues 1-45) (other, UniProt O61667 16-60, looked up)
chain: {GST}-MSNVFDVQSSVFYNEKNMFYSSSQDFSSCEDSSQFADDSGFFDDS
notes: GST placed at the N-terminus by the printed name 'GST-EGL-1'; also called N-terminal half (residues 1-45) of EGL-1; not shown: glutathione S-transferase (GST) fusion partner
Q: Does B1 bind [2]?
A: no binding

B2: F146N: CED-9 mutant F146N (protein)
chain: T2 sequence (looked up) with F146N
Q: B2 was tested. Which “interaction with CED-4” value (CED-4) did it give?
A: significantly weakened interactions with CED-4

B3: R211E/N212G: CED-9 mutant R211E/N212G (protein)
chain: T2 sequence (looked up) with R211E, N212G
Q: B3 was tested. Which “interaction with CED-4” value (CED-4) did it give?
A: significantly weakened interactions with CED-4

B4: N158A/A159G/Q160A: CED-9 mutant N158A/A159G/Q160A (protein)
chain: T2 sequence (looked up) with N158A, A159G, Q160A
Q: For B4, which “interaction with CED-4” value (CED-4) is on record?
A: significantly weakened interactions with CED-4

Q: For SSIGYEIGSKLAAMCDDFDAQMMSY (peptide, UniProt O61667 63-87, looked up, range 63-87; Used in ITC) [EGL-1 fragment (residues 48-72)], which Kd (CED-9 (residues 68-251) [1]) is on record?
A: 6.4 nM

B5: GST-EGL-1 fragment double mutant (mut2, G55E/F65A) (other, UniProt O61667 60-102, looked up)
chain: SEISSIGYEIESKLAAMCDDADAQMMSYSAHASDRSLFHRLLD
modifications: also: GST fusion in pull-down, placement and linker not given here
notes: GST fusion in the pull-down; also called EGL-1 (G55E/F65A); EGL-1 double mutant; not shown: glutathione S-transferase (GST) fusion partner
Q: What does the source list for B5?
A: binding result [3]: no binding; binding result [4]: no binding

B6: GST-EGL-1 fragment quadruple mutant (mut4, G55E/L58A/F65A/M69A) (other, UniProt O61667 60-102, looked up)
chain: B5 chain with L14A, M25A
modifications: also: GST fusion in pull-down, placement and linker not given here
notes: GST fusion in the pull-down; not shown: glutathione S-transferase (GST) fusion partner
Q: Does B6 bind [3]?
A: no binding

B7: full-length EGL-1 protein: full-length pro-apoptotic BH-3 Only protein EGL-1 of C. elegans (protein, UniProt O61667 1-106, looked up)
chain: MLMLTFASTSSDLLPMSNVFDVQSSVFYNEKNMFYSSSQDFSSCEDSSQFADDSGFFDDSEISSIGYEIGSKLAAMCDDFDAQMMSYSAHASDRSLFHRLLDFFAF
modifications: full-length
notes: full-length pro-apoptotic BH-3 Only protein EGL-1 of C. elegans
Q: With B7 as the molecule, how does the Kd (CED-9 (residues 68-251) [5]) read?
A: 6.7 nM

Q: What about the “cell killing (cell corpses induced)” value [6] of the same molecule?
A: induced robust cell killing
